These results are taken from US20240052048A1.

Test [1] deals with cyno-BCMA-Fc (cyno (monkey)). Description: ELISA (OD450), GSK2857916 titrated up to 10 µg/mL on Monkey BCMA-Fc; EC50 table in the figure. Background: An ELISA detects its analyte on a solid surface through an enzyme-linked reagent.
The target in test [2] is cyno-BCMA-His (cyno (monkey)). Description: ELISA (OD450), GSK2857916 titrated up to 10 µg/mL on Monkey BCMA-His; EC50 table in the figure.
Test [3] deals with human-BAFF-Fc (human), Q9Y275. Description: ELISA (OD450), plate coated with BAFF 1 µg/ml, human BCMA titrated up to 10 µg/mL; EC50 table in the figure. Conditions: remark: other sources report otherwise.
human-BAFF-Fc (human), Q9Y275, sequence (Q9Y275 134-285 limits assumed): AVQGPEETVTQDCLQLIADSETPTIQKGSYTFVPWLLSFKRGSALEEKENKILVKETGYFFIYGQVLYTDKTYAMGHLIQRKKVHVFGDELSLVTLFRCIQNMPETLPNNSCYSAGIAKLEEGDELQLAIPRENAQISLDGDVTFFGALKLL
In test [4] the target is human-BAFF-Fc (human), Q9Y275. Description: ELISA (OD450), plate coated with BAFF 2 µg/ml, human BCMA titrated up to 10 µg/mL; EC50 table in the figure. The following applies: remark: other sources report otherwise.
Test [5] has as its target human-BAFF-Fc (human), Q9Y275. Description: ELISA (OD450), plate coated with BAFF 4 µg/ml, human BCMA titrated up to 10 µg/mL; EC50 table in the figure. The following applies: remark: other sources report otherwise.
Test [6] has as its target human-BAFF-Fc (human), Q9Y275. Description: ELISA (OD450), plate coated with BAFF 8 µg/ml, human BCMA titrated up to 10 µg/mL; EC50 table in the figure. Conditions: remark: other sources report otherwise.

B1: GSK2857916 (positive control antibody, not coupled to the toxin molecule) (antibody, V domains shown)
VH: QVQLVQSGAEVKKPGSSVKVSCKASGGTFSNYWMHWVRQAPGQGLEWMGATYRGHSDTYYNQKFKGRVTITADKSTSTAYMELSSLRSEDTAVYYCARGAIYDGYDVLDNWGQGTLVTVSS
VL: DIQMTQSPSSLSASVGDRVTITCSASQDISNYLNWYQQKPGKAPKLLIYYTSNLHSGVPSRFSGSGSGTDFTLTISSLQPEDFATYYCQQYRKLPWTFGQGTKLEIK
On to B1, for which the EC50 in test [1] was found to be 0.336 µg/mL; in test [2], 0.463 µg/mL.

B2: human BCMA (recombinant antigen, tag not stated for the assay), Q02223 1-54 (receptor, UniProt Q02223 1-54, looked up)
chain: MLQMAGQCSQNEYFDSLLHACIPCQLRCSSNTPPLTCQRYCNASVTNSVKGTNA
In the case of B2, the EC50 in test [3] was 0.586 µg/mL; in test [4], 0.553 µg/mL; in test [5], 0.559 µg/mL; in test [6], 0.697 µg/mL.

As usually defined, the EC50 is the concentration at which the effect is half-maximal.
